The test addresses T1, human calcitonin receptor (human, UniProt P30988 25-474).
T1 sequence (looked up): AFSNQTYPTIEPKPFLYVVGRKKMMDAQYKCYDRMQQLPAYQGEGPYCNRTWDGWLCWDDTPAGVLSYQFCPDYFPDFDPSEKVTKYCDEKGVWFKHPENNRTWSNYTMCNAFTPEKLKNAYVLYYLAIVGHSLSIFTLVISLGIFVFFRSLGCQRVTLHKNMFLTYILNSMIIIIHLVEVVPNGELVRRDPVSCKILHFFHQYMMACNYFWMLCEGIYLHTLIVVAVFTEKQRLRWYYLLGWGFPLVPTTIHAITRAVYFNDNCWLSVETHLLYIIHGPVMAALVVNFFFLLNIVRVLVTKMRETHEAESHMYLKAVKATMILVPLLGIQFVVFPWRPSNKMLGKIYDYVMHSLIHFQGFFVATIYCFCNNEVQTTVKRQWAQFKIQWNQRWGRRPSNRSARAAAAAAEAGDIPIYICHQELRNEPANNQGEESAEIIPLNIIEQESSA
The test can be described thus: cell-based or functional assay.

Numbered stars: 1 amine (or outer) side, 2 acyl side, 3 side chain; on linkers, the order of the positions; unused ones are H or OH. Bridge positions count the residues as written; N and C are the ends. Side chains are listed from the residue outwards. Ends that are not written are not given here. * marks the point of attachment. C20 diacid = O=C(O)CCCCCCCCCCCCCCCCCCC(=O)*; γGlu = O=C(O)[C@H](CCC(=O)[*:2])N[*:1]; AEEA = NCCOCCOCC(=O)O

B1: N^ε1-[2-[2-[2-[[(4S)-4-carboxy-4-(19-carboxynonadecanoylamino)butanoyl]amino]ethoxy]ethoxy]acetyl]-[His14,Arg17,Pro21,Pro27]-h-amylin (peptide)
peptide: K([AEEA-γGlu-C20 diacid])CNTATCATQRLAHFLRHSSPNFGAIPSSTNVGSNTY-NH2
modifications: disulfide 2-7; N-terminus assumed
SMILES: CC[C@H](C)[C@H](NC(=O)[C@H](C)NC(=O)CNC(=O)[C@H](Cc1ccccc1)NC(=O)[C@H](CC(N)=O)NC(=O)[C@@H]1CCCN1C(=O)[C@H](CO)NC(=O)[C@H](CO)NC(=O)[C@H](Cc1c[nH]cn1)NC(=O)[C@H](CCCNC(=N)N)NC(=O)[C@H](CC(C)C)NC(=O)[C@H](Cc1ccccc1)NC(=O)[C@H](Cc1c[nH]cn1)NC(=O)[C@H](C)NC(=O)[C@H](CC(C)C)NC(=O)[C@H](CCCNC(=N)N)NC(=O)[C@H](CCC(N)=O)NC(=O)[C@@H](NC(=O)[C@H](C)NC(=O)[C@@H]1CSSC[C@H](NC(=O)[C@@H](N)CCCCNC(=O)COCCOCCNC(=O)CC[C@H](NC(=O)CCCCCCCCCCCCCCCCCCC(=O)O)C(=O)O)C(=O)N[C@@H](CC(N)=O)C(=O)N[C@@H]([C@@H](C)O)C(=O)N[C@@H](C)C(=O)N[C@@H]([C@@H](C)O)C(=O)N1)[C@@H](C)O)C(=O)N1CCC[C@H]1C(=O)N[C@@H](CO)C(=O)N[C@@H](CO)C(=O)N[C@H](C(=O)N[C@@H](CC(N)=O)C(=O)N[C@H](C(=O)NCC(=O)N[C@@H](CO)C(=O)N[C@@H](CC(N)=O)C(=O)N[C@H](C(=O)N[C@@H](Cc1ccc(O)cc1)C(N)=O)[C@@H](C)O)C(C)C)[C@@H](C)O
notes: also called compound 69
Take B1: the “hCTR funct. EC50” value came to 1.25 nM.

B2: N^ε1-[2-[2-[2-(19-carboxynonadecanoylamino)ethoxy]ethoxy]acetyl]-[Arg17,Pro21,Pro27,His34]-h-amylin (peptide)
peptide: K([AEEA-C20 diacid])CNTATCATQRLANFLRHSSPNFGAIPSSTNVGHNTY-NH2
modifications: disulfide 2-7; N-terminus assumed
SMILES: CC[C@H](C)[C@H](NC(=O)[C@H](C)NC(=O)CNC(=O)[C@H](Cc1ccccc1)NC(=O)[C@H](CC(N)=O)NC(=O)[C@@H]1CCCN1C(=O)[C@H](CO)NC(=O)[C@H](CO)NC(=O)[C@H](Cc1c[nH]cn1)NC(=O)[C@H](CCCNC(=N)N)NC(=O)[C@H](CC(C)C)NC(=O)[C@H](Cc1ccccc1)NC(=O)[C@H](CC(N)=O)NC(=O)[C@H](C)NC(=O)[C@H](CC(C)C)NC(=O)[C@H](CCCNC(=N)N)NC(=O)[C@H](CCC(N)=O)NC(=O)[C@@H](NC(=O)[C@H](C)NC(=O)[C@@H]1CSSC[C@H](NC(=O)[C@@H](N)CCCCNC(=O)COCCOCCNC(=O)CCCCCCCCCCCCCCCCCCC(=O)O)C(=O)N[C@@H](CC(N)=O)C(=O)N[C@@H]([C@@H](C)O)C(=O)N[C@@H](C)C(=O)N[C@@H]([C@@H](C)O)C(=O)N1)[C@@H](C)O)C(=O)N1CCC[C@H]1C(=O)N[C@@H](CO)C(=O)N[C@@H](CO)C(=O)N[C@H](C(=O)N[C@@H](CC(N)=O)C(=O)N[C@H](C(=O)NCC(=O)N[C@@H](Cc1c[nH]cn1)C(=O)N[C@@H](CC(N)=O)C(=O)N[C@H](C(=O)N[C@@H](Cc1ccc(O)cc1)C(N)=O)[C@@H](C)O)C(C)C)[C@@H](C)O
notes: also called compound 91
Regarding B2, the “hCTR funct. EC50” value was found to be 1.48 nM.

(Values after patent US20140087995A1 (published 2014).)
